Molecular target: GST-TrbBWT (not stated | E. coli F plasmid) (UniProt P18035)
Assay: SEC-MALS; SEC-MALS-SAXS; Superdex 200 10/300 Increase, 0.6 mL/min, 5.5 mg/mL loaded, 20 mM HEPES pH 7.0, 100 mM NaCl, 5% glycerol, 0.05% NP40, 20 °C

- stoichiometry N: 2
Substance: GST-TrbBWT (from UniProt P18035 23-181)

Reference: paper PMC11315126
